Assay: dCypher AlphaScreen Phase A, optimal reader concentration range
Type: binding
Details: 100 nM biotinylated peptide; 30 min + 60 min at 23 °C; AlphaLISA; n = 2
Description: Fig. 3 dCypher histone peptide-binding assays define the PTM recognition preference of PHD proteins with high sensitivity. a–h Binding curves to determine optimal reader protein concentration for full peptide library screening on the dCypher® AlphaScreen® platform (see “Methods”). X-axes are log(protein concentration (M)) at constant peptide concentration (100 nM); Y-axes are AlphaScreen counts, representing relative strength of binding (n = 2; error bars are S.D.). i Heat map represents relative binding to H3 N-terminal peptides (left) by PHD-containing GST-tagged proteins (top) using the dCypher AlphaScreen platform. Protein concentrations can be found in Additional file 5: Table S4. Binding strength is indicated by color gradient from green to yellow (stronger to weaker). The asterisk (*) by MLL5 signifies its general preference for H3K4 methylation. Alpha counts (n = 2) were normalized individually for each protein to the highest signal for each respective assay. For full dCypher peptide screen data, see Additional file 4: Table S3
We next employed a highly sensitive proximity-based AlphaScreen histone peptide assay (dCypher®) to provide a third and orthogonal approach to analyzing the histone binding preferences for a subset of the 31 PHD proteins with respect to various histone tail PTMs. In this assay, biotinylated peptides are bound to streptavidin “donor” beads and the GST-tagged reader domains bound to Glutathione “acceptor” beads. The donor beads are excited by 680 nm light, releasing a singlet oxygen which causes light emission (520–570 nm) in proximal acceptor beads (within 200 nm); emission intensity is then correlated to binding strength. […] Additionally, we examined several well characterized PHD–PTM interactors [DIDO1, KDM7A, and DPF2 (PPC2W2)] for positive controls and to provide a benchmark. Initial binding assays were conducted for each fusion protein using three peptides [H3 (1–20) with K4me0, H3K4me3 or H3K9me3] to determine the optimal reader domain concentration for full peptide library studies (Fig. 3a–h; Additional file 4: Table S3 and Additional file 5: Table S4). This is an important first step as signal often declined after query protein saturation (the ‘hook point’, caused by excess free query competing with bead bound).
The dCypher peptide screen assay was performed as previously described. Briefly, 5 μL of GST-tagged reader domains (optimal protein concentration for library screening determined by initial binding curves to candidate peptides) were incubated with 5 μL of 400 nM (100 nM Final) biotinylated histone peptides (EpiCypher) for 30 min at 23 °C in 1× AlphaLISA Epigenetics buffer + epigenetics buffer supplement (PerkinElmer, AL1008) in a 384-well plate. […] Plates were incubated at 23 °C in subdued lighting for 60 min and AlphaLISA signal measured on a PerkinElmer 2104 EnVision (680 nm laser excitation, 570 nm emission filter ± 50 nm bandwidth).
Supplementary file 13072_2020_328_MOESM4_ESM.xlsx: Additional file 4: Table S3. dCypher Results. Excel Tab Peptide Phase A is a compiled set of binding data: chromatin reader titration vs. several peptide targets. […] Excel Tab Peptide Phase B is a compiled set of binding data: chromatin reader at optimized concentrations vs. entire 293 peptide library. […]

| Molecule | Phase A Optimal Range (reader concentration) [nM] |
| --- | --- |
| DPF2 (PPC2W2): GST-tagged Dual PHD + C2W2 finger, 190-391 (protein, GST tag) VGSARKKLDASILEDRDKPYACDICGKRYKNRPGLSYHYAHSHLAEEEGEDKEDSQPPTPVSQRSEEQKSKKGPDGLALPNNYCDFCLGDSKINKKTGQPEELVSCSDCGRSGHPSCLQFTPVMMAAVKTYRWQCIECKCCNICGTSENDDQLLFCDDCDRGYHMYCLTPSMSEPPEGSWSCHLCLDLLKEKASIYQNQNSS | 0.05 to 1 |
| CHD5 (PPCC): GST-tagged Dual PHD + Dual Chromo, 330-670 (protein, GST tag) KRIDDGDGYETDHQDYCEVCQQGGEIILCDTCPRAYHLVCLDPELEKAPEGKWSCPHCEKEGIQWEPKDDDDEEEEGGCEEEEDDHMEFCRVCKDGGELLCCDACPSSYHLHCLNPPLPEIPNGEWLCPRCTCPPLKGKVQRILHWRWTEPPAPFMVGLPGPDVEPSLPPPKPLEGIPEREFFVKWAGLSYWHCSWVKELQLELYHTVMYRNYQRKNDMDEPPPFDYGSGDEDGKSEKRKNKDPLYAKMEERFYRYGIKPEWMMIHRILNHSFDKKGDVHYLIKWKDLPYDQCTWEIDDIDIPYYDNLKQAYWGHRELMLGEDTRLPKRLLKKGKKLRDDK | 1 to 35 |
| CHD4 (PPCC): GST-tagged Dual PHD + Dual Chromo, 350-710 (protein, GST tag) KKKKKGEEEVTAVDGYETDHQDYCEVCQQGGEIILCDTCPRAYHMVCLDPDMEKAPEGKWSCPHCEKEGIQWEAKEDNSEGEEILEEVGGDLEEEDDHHMEFCRVCKDGGELLCCDTCPSSYHIHCLNPPLPEIPNGEWLCPRCTCPALKGKVQKILIWKWGQPPSPTPVPRPPDADPNTPSPKPLEGRPERQFFVKWQGMSYWHCSWVSELQLELHCQVMFRNYQRKNDMDEPPSGDFGGDEEKSRKRKNKDPKFAEMEERFYRYGIKPEWMMIHRILNHSVDKKGHVHYLIKWRDLPYDQASWESEDVEIQDYDLFKQSYWNHRELMRGEEGRPGKKLKKVKLRKLERPPETPTVDPTV | 0.45 to 10 |
| PHRF1 (RP): GST-tagged RING + PHD, 90-250 (protein, GST tag) QGKLEAAGSFNSDDDAESCPICLNAFRDQAVGTPENCAHYFCLDCIVEWSKNANSCPVDRTLFKCICIRAQFGGKILRKIPVENTKASEEEEDPTFCEVCGRSDREDRLLLCDGCDAGYHMECLDPPLQEVPVDEWFCPECAAPGVVLAADAGPVSEEEVS | 5 to 30 |
| TRIM66 (PB): GST-tagged PHD + Bromo, 966-1216 (protein, GST tag) APIENEDFCAVCLNGGELLCCDRCPKVFHLSCHVPALLSFPGGEWVCTLCRSLTQPEMEYDCENACYNQPGMRASPGLSMYDQKKCEKLVLSLCCNNLSLPFHEPVSPLARHYYQIIKRPMDLSIIRRKLQKKDPAHYTTPEEVVSDVRLMFWNCAKFNYPDSEVAEAGRCLEVFF | 0.5 to 10 |

Reference: paper PMC6979384, “Characterization of the plant homeodomain (PHD) reader family for their histone tail interactions” (Epigenetics & Chromatin, 2020)
